The test concerns the target RSV G central conserved cysteine-rich region peptide (Gpep, residues 149-196) (respiratory syncytial virus strain A2). Nature of the test: Tricine SDS-PAGE, non-reducing and reducing; 16% Tricine SDS-PAGE of concentrated Gpep, with or without β-mercaptoethanol and with or without heat denaturation.

Turning to “RSV G central conserved cysteine-rich region peptide (Gpep, residues 149-196)”, the stoichiometry N was found to be 2.

Usually stoichiometry N stands for the number of molecules, sites or subunits per partner or assembly.
